From patent publication US20140157444A1

Key:
GFP-ERα (human) = GFP-ERα (human) (UniProt P03372); assay: cell-based or functional assay
[1] = target: Myc-tagged estrogen receptor beta (UniProt O08537); assay: cell-based or functional assay
Chain of Myc-tagged estrogen receptor beta (O08537 whole entry): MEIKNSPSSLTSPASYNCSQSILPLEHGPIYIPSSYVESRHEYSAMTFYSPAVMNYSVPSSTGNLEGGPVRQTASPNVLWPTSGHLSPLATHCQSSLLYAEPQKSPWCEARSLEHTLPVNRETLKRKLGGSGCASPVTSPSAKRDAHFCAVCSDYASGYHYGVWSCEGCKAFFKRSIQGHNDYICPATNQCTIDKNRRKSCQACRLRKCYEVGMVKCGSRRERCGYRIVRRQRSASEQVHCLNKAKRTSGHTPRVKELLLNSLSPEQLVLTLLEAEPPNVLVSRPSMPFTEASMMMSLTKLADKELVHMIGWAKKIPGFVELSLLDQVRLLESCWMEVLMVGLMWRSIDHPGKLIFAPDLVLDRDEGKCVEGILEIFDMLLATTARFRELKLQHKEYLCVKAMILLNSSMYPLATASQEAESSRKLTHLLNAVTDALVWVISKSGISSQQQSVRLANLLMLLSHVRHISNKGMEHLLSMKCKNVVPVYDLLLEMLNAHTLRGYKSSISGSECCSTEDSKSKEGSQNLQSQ

Chain of GFP-ERα (human) (P03372 whole entry): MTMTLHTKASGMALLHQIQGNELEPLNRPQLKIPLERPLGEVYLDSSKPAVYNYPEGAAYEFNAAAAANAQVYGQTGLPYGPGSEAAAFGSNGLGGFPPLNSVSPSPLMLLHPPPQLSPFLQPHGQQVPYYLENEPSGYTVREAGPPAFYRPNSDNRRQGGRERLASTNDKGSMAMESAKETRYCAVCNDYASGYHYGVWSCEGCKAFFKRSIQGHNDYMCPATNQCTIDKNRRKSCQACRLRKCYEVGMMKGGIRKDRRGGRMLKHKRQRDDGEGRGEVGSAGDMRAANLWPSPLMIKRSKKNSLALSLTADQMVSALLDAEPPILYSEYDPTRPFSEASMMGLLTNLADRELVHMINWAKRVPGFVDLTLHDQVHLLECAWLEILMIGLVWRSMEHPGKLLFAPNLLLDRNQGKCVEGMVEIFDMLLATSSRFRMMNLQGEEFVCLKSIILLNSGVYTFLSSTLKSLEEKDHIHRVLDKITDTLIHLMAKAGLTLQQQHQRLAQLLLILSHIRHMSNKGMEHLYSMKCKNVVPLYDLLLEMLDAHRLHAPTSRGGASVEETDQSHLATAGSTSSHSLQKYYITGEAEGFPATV

ERE-driven luciferase activity (ERE-TATA-LUC reporter in HEK 293 cells) (fold reduction) (GFP-ERα (human)): 2
ERE-driven luciferase activity (ERE-TATA-LUC reporter in HEK 293 cells) (fold reduction) [1]: 2
Substance: WDR13 (overexpressed in the luciferase assay, construct not stated) (from UniProt Q91V09 1-485)
